Molecular target: B/Florida/04/06 full-length HA protein produced from baculovirus in Spodoptera frugiperda insect cells (influenza B virus B/Florida/04/06)
Test: SEC

B/Florida/04/06 full-length HA protein produced from baculovirus in Spodoptera frugiperda insect cells (natural protein)
stoichiometry N: > 9 HA monomers
